# Like-named read-outs stand apart in the source and are kept apart here.
# T1: Peptide fragment of nAchR (Nicotinic acetylcholine receptor), 32 mer, biotinylated (N-terminal biotin)
# T1 construct: Synthesised by Anigen; Immobilised on a streptavidin chip for SPR; also called biotinylated nAchR; biotinylated-nAchR peptide
# T1 peptide: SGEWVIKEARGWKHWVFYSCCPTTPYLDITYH
# T2: VEGF121 (human vascular endothelial growth factor) (human, UniProt P15692-9 27-147)
# T2 construct: Immobilised on a CM5 chip by EDC/NHS for SPR and coated on plates for phage ELISA; also called VEGF-Trx cut with thrombin
# T2 sequence (looked up): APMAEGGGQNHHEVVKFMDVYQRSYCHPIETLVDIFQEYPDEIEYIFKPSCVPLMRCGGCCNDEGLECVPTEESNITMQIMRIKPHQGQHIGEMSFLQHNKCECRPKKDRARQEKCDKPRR
# How the values were obtained:
# [1] = target: T1, Peptide fragment of nAchR (Nicotinic …); experiment: SPR (BIAcore X), biotinylated nAchR peptide on streptavidin chip, synthetic peptide as analyte
# Description: (§1) Bipodal-peptide binder peptides specific to ED-B, VEGF or nAchR which were repetitively found in DNA sequencing were synthesized from Anigen Inc. (Korea). Affinity was measured using BIAcore X instrument (Biacore AB, Uppsala, Sweden). ED-B and nAchR were immobilized on streptavidin (SA) chip (Biacore) by injecting 2,000 RU biotinylated-EDB. VEGF was immobilized on CM5 chip (Biacore) using EDC/NHS. PBS (pH 7.4) was used as a running buffer.
# (§2) The above-mentioned peptides were synthesized and their affinities to fibronectin ED-B, VEGF, VCAM1, nAchR and HAS were measured using SPR Biacore system (Biacore AB, Uppsala, Sweden).
# [2] = target: T1, Peptide fragment of nAchR (Nicotinic …); experiment: SPR (BIAcore X), biotinylated nAchR peptide on SA chip
# Description: as §1, §2
# BSA [3] = target: T3, BSA (UniProt P02769 25-607); experiment: phage ELISA, absorbance at 450 nm
# T3 construct: Control protein in the input-phage ELISA; also called bovine serum albumin
# [4] = target: T4, Fibronectin ED-B protein (human fibronectin extra domain B, N-terminal His-tag) (human, UniProt P02751 1266-1356, biotinylated with sulfo-NHS-SS-biotin for biopanning, input-phage ELISA and SPR on the streptavidin chip); experiment: phage ELISA on 10 coated proteins (streptavidin, ED-B, acetylcholine α1, BSA, VCAM, TNF-α, thrombin, myoglobin, lysozyme, visfatin), anti-M13-HRP
# T4 construct: domain: ED-B; Expressed in E. coli BL21 from pET28b; also called biotinylated-EDB; not shown: N-terminal His-tag from the pET28b vector
# Description: Specificity of recombinant phages to each protein was carried out using ELISA. Each protein (5 μg/ml) was seeded into wells (50 μl per well) in a 96-well ELISA plate and next day, all wells were washed with 0.1% PBST (Tween-20) three times, and blocked at room temperature for 2 hrs using 2% skim milk. Then, the solution was completely removed and the plate was washed with 0.1% PBST three times. Recombinant phages containing the peptide of the present invention were thoroughly mixed with 2% BSA. Each mixture (100 μl) was divided into wells coated with 10 proteins and kept to stand at 27° C. for 2 hrs. After washing with 0.1% PBST 5 times, HRP-conjugated anti-M13 antibodies (1:1,000 dilution; GE Healthcare) were added to each well and incubated at 27° C. for 1 hr. After washing with 0.1% PBST 5 times, 100 μl TMB was divided into each well to induce colorimetric reaction, followed by stopping the reaction adding 100 μl of 1 M HCl. The absorbance was measured at 450 nm.
# [5] = target: T4, Fibronectin ED-B protein (human …); experiment: SPR (BIAcore X), biotinylated ED-B on streptavidin chip, synthetic peptide as analyte
# Description: as §1, §2
# BSA [6] = target: T3, BSA; experiment: phage ELISA, absorbance at 450 nm; remark: listed apart in the source
# Streptavidin [7] = target: T5, Streptavidin (UniProt P22629 37-163, limits assumed); experiment: phage ELISA, absorbance at 450 nm
# T5 construct: Control protein in the input-phage ELISA; also called straptavidin
# [8] = target: T4, Fibronectin ED-B protein (human …); experiment: SPR, synthetic bipodal peptide on ED-B
# Description: as §1
# To verify cooperative effect of bipodal-peptide binder to antigen, we synthesized two peptides removing either N- or C-terminal region of peptide 2 to ED-B having excellent specificity in Table 3a for affinity measurement.
# [9] = target: T4, Fibronectin ED-B protein (human …); experiment: SPR (BIAcore X), biotinylated ED-B on SA chip
# Description: as §1, §2
# Human serum albumin [10] = target: T6, Human serum albumin (human, UniProt P02768 25-609); experiment: SPR (Biacore)
# T6 construct: Bought protein; also called HSA; HAS
# Streptavidin [11] = target: T5, Streptavidin; experiment: phage ELISA, absorbance at 450 nm; remark: listed apart in the source
# Human serum albumin [12] = target: T6, Human serum albumin; experiment: SPR (Biacore), synthetic peptide; immobilisation of HSA not described
# BSA [13] = target: T3, BSA; experiment: phage ELISA, absorbance at 450 nm; remark: listed apart in the source
# [14] = target: T2, VEGF121 (human vascular endothelial …); experiment: phage ELISA, absorbance at 450 nm
# Human serum albumin [15] = target: T6, Human serum albumin; experiment: phage ELISA, absorbance at 450 nm
# Streptavidin [16] = target: T5, Streptavidin; experiment: phage ELISA, absorbance at 450 nm; remark: listed apart in the source
# STAT3 protein [17] = target: T7, STAT3 protein (UniProt P40763 1-770, limits assumed); experiment: phage ELISA of single clones on STAT3 against streptavidin
# Description: STAT3 (10 μg/ml), BSA (10 μg/ml) and streptavidin (10 μg/ml) each was added to 30 wells (50 μl per well) in a 96-well ELISA plate and then kept to stand at 4° C. overnight. Next day, all wells were washed with 0.1% PBST three times, and blocked at room temperature for 2 hrs using 2% skim milk diluted with PBS. Then, the solution was removed and the plate was washed with 0.1% PBST three times. Phage peptide solution (100 μl) amplified from each clone was aliquoted to STAT3-bound wells and streptavidin protein-bound wells and kept to stand at 27° C. for 1.5 hrs. After washing with 0.1% PBST 10 times, HRP-conjugated anti-M13 antibodies (1:1,000 dilution; GE Healthcare) were added to each well and incubated at 27° C. for 1 hr. After washing with 0.1% PBST 5 times, 100 μl TMB was divided into each well to induce colorimetric reaction, followed by stopping the reaction adding 100 μl of 1 M HCl. The absorbance was measured at 450 nm to select phages which had the absorbance above 20-fold higher than BSA. XL1 cells were infected with these phages and spread in plate to produce 100-200 of plaques. […]
# The phages recovered from the 4th biopanning step having the highest O/I ratio in each library were isolated as plaques. […] The DNA 10 sequencing was performed for 6 clones showing the absorbance value above 2-fold higher than streptavidin. […]
# STAT3 protein [18] = target: T7, STAT3 protein; experiment: SPR (Biacore X), STAT3 (4000 RU) on CM5 chip, peptide at 2, 5 and 7.5 µM
# Description: The peptide sequences were identified by DNA sequencing. Two peptides were synthesized (BPB1: QAYYIP […] LWGPEF; BPB2: HGFQWP […] AYQFLK).
# The affinity of the bipodal-peptide binder (BPB1: QAYYIP […] LWGPEF) was measured using SPR (Biacore X). The STAT3 protein (4000 RU) was fixed onto the CM5 chip. The concentrations of 2 μM, 5 μM and 7.5 μM the bipodal-peptide binder were used.
# BSA [19] = target: T3, BSA; experiment: phage ELISA, absorbance at 450 nm; remark: listed apart in the source
# [20] = target: T2, VEGF121 (human vascular endothelial …); experiment: phage ELISA, absorbance at 450 nm; remark: listed apart in the source
# Streptavidin [21] = target: T5, Streptavidin; experiment: phage ELISA, absorbance at 450 nm; remark: listed apart in the source
# [22] = target: T2, VEGF121 (human vascular endothelial …); experiment: phage ELISA, absorbance at 450 nm; remark: listed apart in the source
# T7 sequence (P40763 whole entry): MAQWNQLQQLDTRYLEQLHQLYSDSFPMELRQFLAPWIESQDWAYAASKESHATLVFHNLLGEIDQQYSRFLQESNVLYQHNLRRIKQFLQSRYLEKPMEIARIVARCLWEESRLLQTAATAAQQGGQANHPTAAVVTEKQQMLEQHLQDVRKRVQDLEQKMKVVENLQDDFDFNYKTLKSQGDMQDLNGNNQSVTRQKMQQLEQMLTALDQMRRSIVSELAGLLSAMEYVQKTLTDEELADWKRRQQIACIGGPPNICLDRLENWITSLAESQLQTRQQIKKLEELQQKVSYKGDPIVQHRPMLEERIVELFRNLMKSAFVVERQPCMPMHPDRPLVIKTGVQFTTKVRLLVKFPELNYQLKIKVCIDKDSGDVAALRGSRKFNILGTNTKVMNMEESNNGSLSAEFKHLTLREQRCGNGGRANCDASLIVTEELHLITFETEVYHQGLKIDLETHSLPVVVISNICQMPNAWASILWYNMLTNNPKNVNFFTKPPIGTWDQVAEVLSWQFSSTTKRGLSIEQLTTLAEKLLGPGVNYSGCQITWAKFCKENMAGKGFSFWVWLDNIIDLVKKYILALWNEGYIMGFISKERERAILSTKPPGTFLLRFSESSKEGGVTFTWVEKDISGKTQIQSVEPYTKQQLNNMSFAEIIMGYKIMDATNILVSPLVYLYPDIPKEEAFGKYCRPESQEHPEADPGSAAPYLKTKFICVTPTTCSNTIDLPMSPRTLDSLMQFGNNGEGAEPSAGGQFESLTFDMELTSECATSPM
# T3 sequence (P02769 25-607 limits assumed): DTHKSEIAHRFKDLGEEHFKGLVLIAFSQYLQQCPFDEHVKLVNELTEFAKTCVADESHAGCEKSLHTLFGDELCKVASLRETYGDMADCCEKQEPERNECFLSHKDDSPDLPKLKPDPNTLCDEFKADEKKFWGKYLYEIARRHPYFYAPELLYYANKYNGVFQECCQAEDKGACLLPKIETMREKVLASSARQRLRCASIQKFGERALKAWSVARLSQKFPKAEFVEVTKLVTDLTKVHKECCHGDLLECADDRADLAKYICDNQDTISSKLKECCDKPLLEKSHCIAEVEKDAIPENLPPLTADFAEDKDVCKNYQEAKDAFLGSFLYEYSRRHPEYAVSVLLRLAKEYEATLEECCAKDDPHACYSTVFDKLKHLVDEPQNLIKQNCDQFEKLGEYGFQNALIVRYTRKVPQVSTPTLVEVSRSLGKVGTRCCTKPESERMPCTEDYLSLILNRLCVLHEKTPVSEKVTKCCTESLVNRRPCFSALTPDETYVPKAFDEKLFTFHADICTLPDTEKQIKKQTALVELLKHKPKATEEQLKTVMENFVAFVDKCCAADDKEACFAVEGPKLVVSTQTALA
# T6 sequence (P02768 25-609 limits assumed): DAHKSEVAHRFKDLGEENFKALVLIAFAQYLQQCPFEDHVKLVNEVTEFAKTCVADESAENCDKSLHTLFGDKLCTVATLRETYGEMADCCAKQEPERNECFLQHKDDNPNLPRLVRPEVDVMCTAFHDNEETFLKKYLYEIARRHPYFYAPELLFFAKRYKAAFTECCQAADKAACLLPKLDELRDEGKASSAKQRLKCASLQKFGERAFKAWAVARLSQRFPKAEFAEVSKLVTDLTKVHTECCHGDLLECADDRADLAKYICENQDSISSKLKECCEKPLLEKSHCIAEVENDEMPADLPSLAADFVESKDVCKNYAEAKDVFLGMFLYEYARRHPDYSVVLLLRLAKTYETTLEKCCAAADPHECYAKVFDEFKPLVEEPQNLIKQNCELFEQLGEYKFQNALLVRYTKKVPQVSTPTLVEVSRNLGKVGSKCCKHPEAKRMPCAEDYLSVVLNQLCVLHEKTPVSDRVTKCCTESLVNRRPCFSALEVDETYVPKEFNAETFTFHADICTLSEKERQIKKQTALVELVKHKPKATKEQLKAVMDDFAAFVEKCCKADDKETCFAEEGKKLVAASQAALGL
# T5 sequence (P22629 37-163 limits assumed): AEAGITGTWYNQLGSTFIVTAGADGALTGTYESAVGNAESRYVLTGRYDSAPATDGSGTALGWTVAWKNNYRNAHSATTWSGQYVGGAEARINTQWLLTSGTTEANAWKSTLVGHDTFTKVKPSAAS
# T4 sequence (P02751 1266-1356): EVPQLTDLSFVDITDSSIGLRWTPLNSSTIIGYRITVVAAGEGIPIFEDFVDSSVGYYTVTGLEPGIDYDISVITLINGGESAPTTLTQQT
binder,measurement,setting,value
"EASFWLGSWTWENGKWTWKGKGTLNR [Peptide 1 specific to nAchR (Table 3d), bipodal-peptide binder]",Kd,[1],73 nM
same,koff,[2],0.0085 s⁻¹
same,kon,[2],110000 M⁻¹ s⁻¹
same,binding result,BSA [3],no binding
"HCSSAVGSWTWENGKWTWKGIIRLEQ [Peptide 2 specific to fibronectin ED-B (Table 3a), bipodal-peptide binder with tryptophan zipper]",fold absorbance over other proteins,[4],> 30 fold
same,Kd,[5],75 nM
same,binding result,BSA [6],no binding
same,binding result,Streptavidin [7],no binding
same,Kd,[8],43 nM
same,koff,[9],0.0008 s⁻¹
same,kon,[9],10000 M⁻¹ s⁻¹
"AASPYKGSWTWENGKWTWKGGWRMKM [Peptide 1 specific to HSA (Table 3e), bipodal-peptide binder]",koff,Human serum albumin [10],0.02 s⁻¹
same,kon,Human serum albumin [10],250000 M⁻¹ s⁻¹
same,binding result,Streptavidin [11],no binding
same,Kd,Human serum albumin [12],115 nM
QAYYIPGSWTWENGKWTWKGLWGPEF (also called BPB1; Peptidel) [STAT3-specific bipodal-peptide binder Peptide 1],binding result,BSA [13],no binding
same,binding result,[14],no binding
same,binding result,Human serum albumin [15],no binding
same,binding result,Streptavidin [16],no binding
same,fold absorbance over streptavidin,STAT3 protein [17],> 2 fold
same,Kd,STAT3 protein [18],~1700 nM
HGFQWPGSWTWENGKWTWKGAYQFLK (also called BPB2) [STAT3-specific bipodal-peptide binder Peptide 2],binding result,BSA [19],no binding
same,binding result,[20],no binding
same,binding result,Streptavidin [21],no binding
same,fold absorbance over streptavidin,STAT3 protein [17],> 2 fold
"HSHAFYGSWTWENGKWTWKGNPGWWT [Peptide 1 specific to MyD88 (Table 3f), bipodal-peptide binder]",binding result,[22],no binding

# From US20120309934A1 (GWANGJU INSTITUTE OF SCIENCE AND TECHNOLOGY, published 2012)
